Laboratory results from FireProtDB (doi:10.1093/protein/gzi051).

B1: Alpha-lactalbumin, P00711 (parent)
chain: MMSFVSLLLVGILFHATQAEQLTKCEVFRELKDLKGYGGVSLPEWVCTTFHTSGYDTQAIVQNNDSTEYGLFQINNKIWCKDDQNPHSSNICNISCDKFLDDDLTDDIMCVKKILDKVGINYWLAHKALCSEKLDQWLCEKL

Variants of: B1
Details: Bos taurus, pH 7.7, Thermal, Fluorescence, HEPES-KOH 10 mM, structure 1HFZ, whole UniProt chain shown

Variant: D56N
- Tm (CaCl2 1 mM): 74.2 °C
- change of melting temperature, mutant - wild type (higher = more stable) (CaCl2 1 mM): 14.4 °C
- Tm: 31.7 °C

Variant: E20M
- Tm (CaCl2 1 mM): 69.8 °C
- change of melting temperature, mutant - wild type (higher = more stable) (CaCl2 1 mM): 10 °C
- Tm: 36.8 °C

Variant: E20Q
- Tm: 23.5 °C

Variant: E30L
- Tm: 27.5 °C

Variant: E26Q
- Tm (CaCl2 1 mM): 67.7 °C
- change of melting temperature, mutant - wild type (higher = more stable) (CaCl2 1 mM): 7.9 °C
- Tm: 27 °C

Variant: E44A
- Tm (CaCl2 1 mM): 60.9 °C
- change of melting temperature, mutant - wild type (higher = more stable) (CaCl2 1 mM): 1.1 °C
- Tm: 19.5 °C
